# IntAct's records for PubMed 17187077
# B1: Nuclear receptor subfamily 2 group C member 1 (Mus musculus), Q505F1 (parent)
# chain: MATIEEIAHQIIDQQMGEIVTEQQTGQKIQIVTALDHSTQGKQFILANHEGSTPGKVFLTTPDAAGVNQLFFTSPDLSAPHLQLLTEKSPDQGPNKVFDLCVVCGDKASGRHYGAITCEGCKGFFKRSIRKNLVYSCRGSKDCVINKHHRNRCQYCRLQRCIAFGMKQDSVQCERKPIEVSREKSSNCAASTEKIYIRKDLRSPLAATPTFVTDSETARSAGLLDSGMFVNIHPSGIKTEPAMLMAPDKAESCQGDLSTLASVVTSLANLGKAKDLSHCGGDMPVVQSLRNGDTSFGAFHHDIQTNGDVSRAFDTLAKALTPGESSACQSPEEGMEGSPHLIAGEPSFVEKEGPLLSESHVAFRLTMPSPMPEYLNVHYIGESASRLLFLSMHWALSIPSFQALGQENSISLVKAYWNELFTLGLAQCWQVMNVATILATFVNCLHSSLQQDKMSPERRKSLMEHIFKLQEFCNSMVKLCIDGHEYAYLKAIVLFSPDHPGLENMELIERFQEKAYVEFQDYITRTYPDDTYRLSRLLLRLPALRLMNATITEELFFKGLIGNVRIDSVIPHILKMEPADYNSQIIGHSL
# Variants of: B1
# Conditions: with pias1_mouse Pias1, O88907
# pias1_mouse Pias1, O88907, sequence (O88907 whole entry): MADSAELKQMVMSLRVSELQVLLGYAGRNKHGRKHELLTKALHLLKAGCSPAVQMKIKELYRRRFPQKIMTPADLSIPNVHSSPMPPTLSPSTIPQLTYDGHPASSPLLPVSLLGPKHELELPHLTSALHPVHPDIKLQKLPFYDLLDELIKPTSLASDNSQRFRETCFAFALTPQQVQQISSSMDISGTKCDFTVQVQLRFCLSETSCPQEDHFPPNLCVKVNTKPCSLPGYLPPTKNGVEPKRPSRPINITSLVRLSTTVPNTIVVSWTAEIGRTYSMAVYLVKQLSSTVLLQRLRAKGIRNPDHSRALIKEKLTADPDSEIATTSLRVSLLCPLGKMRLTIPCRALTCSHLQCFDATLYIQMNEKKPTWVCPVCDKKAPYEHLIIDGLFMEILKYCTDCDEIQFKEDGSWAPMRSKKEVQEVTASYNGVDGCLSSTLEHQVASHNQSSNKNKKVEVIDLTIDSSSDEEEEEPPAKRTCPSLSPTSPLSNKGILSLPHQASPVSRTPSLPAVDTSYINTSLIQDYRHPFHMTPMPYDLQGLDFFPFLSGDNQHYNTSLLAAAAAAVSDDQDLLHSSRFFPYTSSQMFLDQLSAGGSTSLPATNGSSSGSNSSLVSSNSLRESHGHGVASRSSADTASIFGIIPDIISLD
row,effect of a mutation on the interaction,Variant
1,decreasing interaction,K238A
